Reference: the RNAGym collection of RNA variant scans (doi:10.1073/pnas.2313332121)

B1: TPR t1 (parent)
chain: GACCAAUCUGCCCUCAGAGCUCGAGAACAUCUUCGGAUGCAGAGGAGGCAGGCUUCGGUGGCGCGAUAGCGCCAACGUCCUCAACCUCCAAUGCAUCCCACCACAUGAUGAUGCCUGAAGAGCCUUGGUUUUUUG

Variants of: B1
Test: polymerase ribozyme fitness, log enrichment relative to wild type (log ratio); higher = more active; in vitro selection for triplet polymerase activity
Outline: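 Libraries of mutants in each subunit of a heterodimeric triplet polymerase ribozyme were generated by PCR and transcribed. In triplicate, each went through one in vitro selection round: annealing with biotinylated primer, partner subunit and triplets; frozen incubation at −7 °C; gel excision of extended constructs; streptavidin-bead capture; RT-PCR. Fitness, taken from Illumina sequencing of input and output libraries, is the logarithm of a genotype's enrichment over wild-type enrichment, averaged across replicates with inverse-variance weights. The logarithm is base 2, and genotypes needed ≥10 input reads and ≥1 read per output to be kept.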

U38C A43G C73U G93A and A5U G51U G77U are within 0.2 log units of each other in “polymerase ribozyme fitness (log ratio)” value: -4.56 for the first, -4.52 for the second.

Going from A2U C11U C22A A41C G71U C82A C88U A121G to A16C A50G, the “polymerase ribozyme fitness (log ratio)” value rises from -6.23 to -2.32.

Compared with A5U C88G G120C, C11G C20U is lower in “polymerase ribozyme fitness (log ratio)” value: 0.286 for the first, -0.656 for the second.

First: C3U G44C C114A A119U G122C
Second: G10A U132A
The “polymerase ribozyme fitness (log ratio)” value of the first is lower: -3.33 for the first, 0.124 for the second.

A24U C56A G60A C123U U125A and C13A A43C G44A C72U C76U U126A are the same in “polymerase ribozyme fitness (log ratio)” value: -5.92 for the first, -5.92 for the second.

Going from G52A A74G G122A C124U to A91C A118G, the “polymerase ribozyme fitness (log ratio)” value falls from 0.026 to -2.33.

Compared with G42A G61U, C8G C73U C86U is higher in “polymerase ribozyme fitness (log ratio)” value: -2.48 for the first, 0.186 for the second.

First: U7A A37G G52A C56G G120U
Second: A90G C101G C115G
The “polymerase ribozyme fitness (log ratio)” value of the first is higher: -0.68 for the first, -2.74 for the second.

Going from U67C C82G A119G to A6C G44U C64U U96A C104A, the “polymerase ribozyme fitness (log ratio)” value rises from -5.87 to -3.82.

First: G23A C97U A121U
Second: A18C G52C U96C
The “polymerase ribozyme fitness (log ratio)” value of the first is lower: -4.57 for the first, -3.84 for the second.

Compared with C40A U54C C82G A118U C123U, C53A A66G C123U is higher in “polymerase ribozyme fitness (log ratio)” value: -0.573 for the first, 0.367 for the second.

First: G61A G120A U133A
Second: U54C C79A C98U C101A
The “polymerase ribozyme fitness (log ratio)” value of the first is higher: 0.274 for the first, -5.66 for the second.

Compared with C15U G42C A46U, G44U C53A G63A G113A is higher in “polymerase ribozyme fitness (log ratio)” value: -3.23 for the first, -2.93 for the second.

Going from C3U C4A to C20A C28U C62U C101A G113A, the “polymerase ribozyme fitness (log ratio)” value falls from -1.77 to -6.69.

Compared with A6U C34A, U21C G69U C89U is higher in “polymerase ribozyme fitness (log ratio)” value: -1.85 for the first, -0.984 for the second.

First: C11A G51U C85U G120C
Second: U9G A46U G48U C76U C124U
The “polymerase ribozyme fitness (log ratio)” value of the first is lower: -3.38 for the first, -1.24 for the second.

First: C49U A90G
Second: A90C C97U U112C C114A
The “polymerase ribozyme fitness (log ratio)” value of the first is higher: 0.52 for the first, -3.18 for the second.

Going from A5C G71U to C8U G63A C102A U106C G113A U130G, the “polymerase ribozyme fitness (log ratio)” value falls from -0.21 to -5.25.

Compared with G42A G71U A119U, C3U A41C G42A U78C U92G is lower in “polymerase ribozyme fitness (log ratio)” value: -2.99 for the first, -3.33 for the second.

Going from A46U C89U A111U to C12G G120C, the “polymerase ribozyme fitness (log ratio)” value rises from -5.27 to 1.23.

First: A5U G63U G65C C80U C85U A95G C97U C115U
Second: G61A G113A
The “polymerase ribozyme fitness (log ratio)” value of the first is lower: -6.48 for the first, -0.325 for the second.

First: C15A A111G
Second: A46U G47A G127C
The “polymerase ribozyme fitness (log ratio)” value of the first is higher: -2.08 for the first, -3.12 for the second.

Compared with A26G U78C U106A G113U C115A, A68G U132A is higher in “polymerase ribozyme fitness (log ratio)” value: -5.3 for the first, -3.13 for the second.

First: C4G A66G C115A
Second: C123G U130G
The “polymerase ribozyme fitness (log ratio)” value of the first is lower: -2.94 for the first, 1.48 for the second.

First: U78A G117A
Second: G69U C104A
The “polymerase ribozyme fitness (log ratio)” value of the first is lower: -1.76 for the first, -0.638 for the second.

First: C15U G44C A83U A100C
Second: C20A G52C U125A
The “polymerase ribozyme fitness (log ratio)” value of the first is lower: -3.3 for the first, -3.04 for the second.

Going from C56G U96A to U21G U54C G58A U81A A91G A95U G113A U125G, the “polymerase ribozyme fitness (log ratio)” value falls from -0.238 to -5.59.

First: A37U C82G
Second: A83C U112G G113C G120U U130C
The “polymerase ribozyme fitness (log ratio)” value of the first is higher: -0.955 for the first, -7.33 for the second.

G52A A66G and A6C C104A are within 0.2 log units of each other in “polymerase ribozyme fitness (log ratio)” value: -1.47 for the first, -1.61 for the second.

First: A2G C4U G35A G77A C98U C101A
Second: A43U C86U
The “polymerase ribozyme fitness (log ratio)” value of the first is lower: -6.32 for the first, -2.52 for the second.

Compared with C8U C56U C89A A118U, A26G G39A C49U C64U is lower in “polymerase ribozyme fitness (log ratio)” value: -1.04 for the first, -3.32 for the second.

First: A27U C97A
Second: U9A A50U C102A
The “polymerase ribozyme fitness (log ratio)” value of the first is lower: -7.67 for the first, -1.91 for the second.

Going from G25U A26G to C12U C80G G128C U130C, the “polymerase ribozyme fitness (log ratio)” value falls from -3.22 to -4.44.

First: G45U C123U
Second: C20U A26G G60C A90C
The “polymerase ribozyme fitness (log ratio)” value of the first is higher: -0.952 for the first, -4.37 for the second.

Compared with C72A G117A, G69U U132A is higher in “polymerase ribozyme fitness (log ratio)” value: -1.19 for the first, 0.176 for the second.

Compared with C8A U78C, C70U U78C is lower in “polymerase ribozyme fitness (log ratio)” value: 0.0167 for the first, -1.4 for the second.

First: C89U C123A
Second: G45U A46C G127C
The “polymerase ribozyme fitness (log ratio)” value of the first is higher: 0.125 for the first, -2.82 for the second.

Compared with A16U G69U C98U A121C U130A, C11U A37C G52C C76U is lower in “polymerase ribozyme fitness (log ratio)” value: -0.111 for the first, -2.87 for the second.

C73U A74G C99U and C101A U116A are within 0.2 log units of each other in “polymerase ribozyme fitness (log ratio)” value: -3.36 for the first, -3.39 for the second.

Compared with G47U C76A C79A C80G C94G A100C U116G C124U U129A, U14G A41C A74U A84C is higher in “polymerase ribozyme fitness (log ratio)” value: -5.73 for the first, -3.77 for the second.

Going from U59A A66C C124A to U92C U132C, the “polymerase ribozyme fitness (log ratio)” value falls from 0.00699 to -1.85.

In the case of C40G C56G C70A, the “polymerase ribozyme fitness (log ratio)” value is reported as -4.24.
